Laboratory results reported in the nanobody polyreactivity screen of Harvey et al. (2022).

Assay: yeast display, Sf9 membrane polyspecificity reagent, FACS + sequencing; frameworks hold sequencing errors
Outline: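 Sorting gates, low and high (top ~1%), were placed on anti-HA fluorescence to track expression and on streptavidin fluorescence to track reagent binding. A clone's polyreactivity label is taken from the gate it came out of. The reagent was 10% biotinylated, detergent-solubilized Sf9 membrane, applied for 1 hour at 4 °C to galactose-induced yeast display cells.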

For “QVQLVESGGGLVQAGGSLRLSCAASGRTLDVYAMGWSRQAPGKERELVASITSSGARTYYADSVKGRFTISRDNAKNTVYLQMNSLKPEDTAVYYCAARVYRYSASRAYDYWGQGSQVTVSS”, the “polyreactivity (PSR sort gate)” value was “high polyreactivity”.

In the case of “QVQLVESGGGLVQAGGSLRLSCAASGRTLENYAMGWSRQAPGKERELVATINGRSGNTYYADSVKGRFTLSRDNAKNTVYLQMNSLKPEDTAVYYCNAYYEGYYTVGYDYWGQGTQVTVSS”, the “polyreactivity (PSR sort gate)” value is reported as “high polyreactivity”.

With “QVQLVESGGGLVQAGGSLRLSCAASGRTLGFYAMGWYRQAPGKEREFVAAISSSVGRTYYADSVKGRFTISRDNAKNTVYLQMNSLKPEDTAVYYCAADRTDTSNYWGQGTQVTVSS” the “polyreactivity (PSR sort gate)” value was “high polyreactivity”.

In the case of “QVQLVESGGGLVQAGGSLRLSCAASGRTLGHNAMGWYRPAPGKERELVAAITSRGGTTYADSVKGRFTISRDNAKKTVYLQMNSLKPEETAVYYCAARVSGSRKYYYWGQGTQVTVSS”, the “polyreactivity (PSR sort gate)” value is reported as “high polyreactivity”.

With “QVQLVESGGGLVQAGGSLRLSCAASGRTLGHNAMGWYRQAPGKERELVAAITSRGGTTYADSVKGRFTISRDNAKNTVYLQMNSLKPEDTAVYYCAARGYAYSRYYYWGQGTQVTVSS” the “polyreactivity (PSR sort gate)” value was “high polyreactivity”.

For “QVQLVESGGGLVQAGGSLRLSCAASGRTLGKYVMGWYRQAPGKERELVAAISVRGGTTYYADSVKGRFTISRDNAKYTVYLQMNSLKPEDTAVYYGNKAYYVWYGWGQGTQVTVSS”, the “polyreactivity (PSR sort gate)” value was “high polyreactivity”.

In the case of “QVQLVESGGGLVQAGGSLRLSCAASGRTLGSNTMGWYRQAPGKERELVASISLSGGSTSYADSVKGRFTISRDNAKNTVYLQMNSLKPEDTAVYYCNAKYHRRLQWGTRYYYWGQGTQVTVSS”, the “polyreactivity (PSR sort gate)” value is reported as “high polyreactivity”.

For “QVQLVESGGGLVQAGGSLRLSCAASGRTLGTNAMGWYRQAPGKERELVASISKRGGSTYYADSVKGRFTISRDNAKNTVYLQMNSLKPEDTAVYYCAALFLSHIYYYWGQGTQVTVSS”, the “polyreactivity (PSR sort gate)” value was “high polyreactivity”.

For “QVQLVESGGGLVQAGGSLRLSCAASGRTLGVYTMGWYRQAPGKERELVATISWDGGITYYADSVKGRFTISRDNAKNTVYLQMNSLKPEDTAVYYCAAVDHSYGWMDYWGQGTQVTVSS”, the “polyreactivity (PSR sort gate)” value was “low polyreactivity”.

With “QVQLVESGGGLVQAGGSLRLSCAASGRTLHDYTMGWYRQEPGKERELVAGITSGGRTNYADSVKGRFTISRYNAKNTVYLQMNSLKPEDTAVYYCAAAWTWWRLYADDYWGQGTQVTVSS” the “polyreactivity (PSR sort gate)” value was “high polyreactivity”.

For “QVQLVESGGGLVQAGGSLRLSCAASGRTLISYAMGWYRQAPGKERELVAAISWGGSSTYYADSVKGRFTISGDNAKNTVYLQMNSLKPEDTAVYYCAAVSYRGRGLSRYVAYGYKYDYWGQGTQVTVSS”, the “polyreactivity (PSR sort gate)” value was “high polyreactivity”.

With “QVQLVESGGGLVQAGGSLRLSCAASGRTLKKNSMGWYRQAPGKERELVAAISTGGRTYYADSVKGRFTISRDNAKNTVYLQINSLKPEDTAVYYCNFQFLSWSTIWGNDYWGQGTQVNVSS” the “polyreactivity (PSR sort gate)” value was “high polyreactivity”.

With “QVQLVESGGGLVQAGGSLRLSCAASGRTLKYNAMGWYRQAPGKERELVAAISWSGTRTYYADSVKGRFTISRDNAKNTVYLQMNSLKPEDTAVYYCALYGGLGDRFRPRYYWGQGTQVTVSS” the “polyreactivity (PSR sort gate)” value was “high polyreactivity”.

In the case of “QVQLVESGGGLVQAGGSLRLSCAASGRTLLANAMGWYRQAPGKARELVAAITWTGGRTNYADSVKGRFTISRDNAKNTVYLQMNSLKPEDTAVYYCAADIFYEQVVGGTDVGYHDFDYWGQGTQVTVSS”, the “polyreactivity (PSR sort gate)” value is reported as “low polyreactivity”.

With “QVQLVESGGGLVQAGGSLRLSCAASGRTLNVYAMGWYRQAPGKDREFVAAITVSGGNTYADSVKGRFTISRDNAKNTVYLQMNSLKPEDTAVYYCAVDRFSYSRRYDYWGQGTQVTVSS” the “polyreactivity (PSR sort gate)” value was “high polyreactivity”.

For “QVQLVESGGGLVQAGGSLRLSCAASGRTLNYYAMVCYRQAPGKERELVASIDWDTGITDYADSVKGRFTISRDNAKNTVYLQMNSLKPEDSAVYYCAAVRVTKKYSYAYWGQGTQVTVSS”, the “polyreactivity (PSR sort gate)” value was “low polyreactivity”.

With “QVQLVESGGGLVQAGGSLRLSCAASGRTLPATGMGWYRQAPGKERELVAAINWRGGITYYADSVKGRFTISRDNAKNTVYLQMNSLKPVDTAVYYCARLRYFLLNGSLRYGTSDRDYWGQGTQVTVSS” the “polyreactivity (PSR sort gate)” value was “high polyreactivity”.

With “QVQLVESGGGLVQAGGSLRLSCAASGRTLPYYAMGWYRQAPGKERELVATISSRGGSTYYADSVKGRFTISRDNAKNTVYLQMNSLKPEDTAVYYCAARGNTPRTRRYGYWGQGTQVTVSS” the “polyreactivity (PSR sort gate)” value was “high polyreactivity”.

For “QVQLVESGGGLVQAGGSLRLSCAASGRTLQYNAMGWYRQAPGKEMELVAAISSSGGSTYYADSVKGRFTISRDNAKNTVYLQMNSLKPEDTALYYCNAYSQSWNFYGDGDYWGQGTLVTVSS”, the “polyreactivity (PSR sort gate)” value was “low polyreactivity”.

In the case of “QVQLVESGGGLVQAGGSLRLSCAASGRTLRLYVMGWYRQAPGKERELVAAISRSGGRTYYADSVKGRFTISRDNATNTVYLQMNSLKPEDTAVYYCAADSGRYGYDYWGQGTLVTVSS”, the “polyreactivity (PSR sort gate)” value is reported as “high polyreactivity”.

In the case of “QVQLVESGGGLVQAGGSLRLSCAASGRTLSRNAMGWSRQAPGKEREFVAAISSRGTSTYYADSVKGRFTISRDNAKNTVYLQMNSLKPEDTAVYYCATTLGGNYGYDYWGQGTQVTVSS”, the “polyreactivity (PSR sort gate)” value is reported as “high polyreactivity”.

In the case of “QVQLVESGGGLVQAGGSLRLSCAASGRTLTFYAMGWYRQAPGTERELVAAITWRAGSTYYADSVKGRFTISRDNAKNTVYLQMNSMKPEDTAVYYCAREPYSASHVYGLYRGYDYWGQGTQVTVSS”, the “polyreactivity (PSR sort gate)” value is reported as “low polyreactivity”.

In the case of “QVQLVESGGGLVQAGGSLRLSCAASGRTLTGNAMGWYRQAPGKERELVAAITARGGSTYYADSVKGRFTISRDIAKNTVYLQMNSLKPEDSAVYYCATLPVRIRRDYWGQGTQVTVSS”, the “polyreactivity (PSR sort gate)” value is reported as “high polyreactivity”.

With “QVQLVESGGGLVQAGGSLRLSCAASGRTLTSYAMGWYRQAPGKERELVARISNGGNTKYADSVNGRFTISRDNAKNTVYLQMNSLKPEDTAVYYCAADYSYYHGPSRHKHDYWGQGTKVTVSS” the “polyreactivity (PSR sort gate)” value was “low polyreactivity”.

In the case of “QVQLVESGGGLVQAGGSLRLSCAASGRTLVGYAMGWYIQAPGKERELVAAISSRGGGTYYADSVKGRFTISRDNAKNTVYLQMNSLKQEDTAVYYCEVSGASYSWGQGTQVTVSS”, the “polyreactivity (PSR sort gate)” value is reported as “high polyreactivity”.

In the case of “QVQLVESGGGLVQAGGSLRLSCAASGRTLVLYAMGWYRQAPGKERELVAAITWSGDSTYYADSVKGRFTISRDNAKNTVYLQMNSLKPEDTAVYYCAATYLNAKRGLRYDYWGQDTQVTVSS”, the “polyreactivity (PSR sort gate)” value is reported as “low polyreactivity”.

For “QVQLVESGGGLVQAGGSLRLSCAASGRTLYGYPMGWYRQAPGKERELVAAISKRGTRTYYADSVKGRFTISRDNAKNTVYIQMNSLKPEDTAVYYCAARYPPDEATMVYWGQGTQVTVSS”, the “polyreactivity (PSR sort gate)” value was “high polyreactivity”.

For “QVQLVESGGGLVQAGGSLRLSCAASGRTLYKYAMGLYRQAPGKERELFATISSGGRTNYADSVKGRFTISRDNSKNTVYLQMNSLKPEDTAVYYCAAQNRPRYYSGDYWGQGSQVTVSS”, the “polyreactivity (PSR sort gate)” value was “low polyreactivity”.

In the case of “QVQLVESGGGLVQAGGSLRLSCAASGRTLYRYTMGWYRQAPGKERELVAAISRGGSTYYADSVKGRFTISRDNAKNTVYLQMNSLKPEDTAVYYCAAVYSYTSWQTWWPEYDYWGQGTQVTVSS”, the “polyreactivity (PSR sort gate)” value is reported as “high polyreactivity”.

With “QVQLVESGGGLVQAGGSLRLSCAASGRTSDGYAMGWYRQAPGKERELVAGITEGGGDTYYADSVKGRFTISRDNAKNTVYLQMNSLKPEDSAVYYCNAVEGSRLPYDYWGQGTQVTVSS” the “polyreactivity (PSR sort gate)” value was “low polyreactivity”.

With “QVQLVESGGGLVQAGGSLRLSCAASGRTSGINAMGWYRQSPGKERELVAAISSGGRTYYADSVKGRFTISRDNAKNTVYLQMNSLKPEDTAVYYCAAVIHWSLYRRMEYWGQGTQVTVSS” the “polyreactivity (PSR sort gate)” value was “high polyreactivity”.

In the case of “QVQLVESGGGLVQAGGSLRLSCAASGRTSGNYAMGWYRPAPGKERELVAAMRYSGSSTFYADSVKGRFTISRDNAKNTVYLQMNSLKPEDTAVYYCARDIRRKGFRYDYWGQGTQVTVSS”, the “polyreactivity (PSR sort gate)” value is reported as “high polyreactivity”.

In the case of “QVQLVESGGGLVQAGGSLRLSCAASGRTSIYNAMGWYRQAPGKDREFVAAITSSGGSTYYADSVKGRFTISRDNAKNTVYLQMNSLKPEDTAVYYCAARPAYVYAYYRYGYWGQGTQVTVSS”, the “polyreactivity (PSR sort gate)” value is reported as “high polyreactivity”.

For “QVQLVESGGGLVQAGGSLRLSCAASGRTSKVYAMGWYRQAPGKERELVARITSSGVRTYYADSVKGRFTISRDNAKNTVYLQMNSLKPEDTAVYYCAKDARALWLHSGIYDYWGQGTQVTVSS”, the “polyreactivity (PSR sort gate)” value was “low polyreactivity”.

For “QVQLVESGGGLVQAGGSLRLSCAASGRTSRIYAMGLYRQAPGKERELVASISRRGGITYYADSVKGRFTISRDNAKTTVDFQMTSLKPEDTAVYYSASYYTNKVPARYYWGQGTEVTVSS”, the “polyreactivity (PSR sort gate)” value was “high polyreactivity”.

For “QVQLVESGGGLVQAGGSLRLSCAASGRTSRYYAMGWYRQAPGKERELVATITRGGTTNYADSVKGRFTISRDNAKNNVYLQMNSLKPEDTAVYYCNKVFRAPGVSDYGYWGQGTQVTVSS”, the “polyreactivity (PSR sort gate)” value was “high polyreactivity”.

For “QVQLVESGGGLVQAGGSLRLSCAASGRTSTIYTMGWYRQAPGKEREFVASISAGAGTYYADSVKGRFTISRDNAKNTVYLQMNSLKPEDTAVYYCSASVYWRSTRRHQMDYWGQGTQVTVSS”, the “polyreactivity (PSR sort gate)” value was “high polyreactivity”.

In the case of “QVQLVESGGGLVQAGGSLRLSCAASGRTSVRYAMGWYRQAPGKERELVAAISWSGGSTYYADSVKGRFTISRDNAKNTVYLQMNSLKPEDTAVYYCNAQHARGYYYWGQGTQVTVSS”, the “polyreactivity (PSR sort gate)” value is reported as “low polyreactivity”.

For “QVQLVESGGGLVQAGGSLRLSCAASGRTSVVNAMGWYRQAPGKERELVAAITSGGSTHYADSVKGRFTISRDNAKNTVYLQMNSLKPEDTAVYYCNARDRRRTNLLDYWGQGTQVTVSS”, the “polyreactivity (PSR sort gate)” value was “low polyreactivity”.

In the case of “QVQLVESGGGLVQAGGSLRLSCAASGRTSWYYAMGWYRQAPGNERELVATITRSTGSTYYADSVKGRFTISRDNAKNTVYLQMNCLKPEDTAVYDCARLYYFNGDYWGQGTQVTVSS”, the “polyreactivity (PSR sort gate)” value is reported as “high polyreactivity”.

In the case of “QVQLVESGGGLVQAGGSLRLSCAASGRTSYGYAMGWYRQAPGKERDLFAAITYGGGSTYYADTVKGRFTISRDNANNTVYLQMNSLIPEDTALYYCAADRTGSTLYTISYYYWGQGTQVTVSS”, the “polyreactivity (PSR sort gate)” value is reported as “low polyreactivity”.

For “QVQLVESGGGLVQAGGSLRLSCAASGRTVDWYAMGWYRQAPGTDRELVAVISSSGGRTYYADSVKGRFTISRDNAKNTVYLQMNRLKPEDTAVYYCATQNGSKRYSYYYWGQGTQVTVSS”, the “polyreactivity (PSR sort gate)” value was “high polyreactivity”.

In the case of “QVQLVESGGGLVQAGGSLRLSCAASGRTVVTNAMGWYRQAPGKERELVATINWSGGRTHYADSVKGRFTISRDNAKITVYLQMNSLIPEDTAVYYCAKASSRRYWTIRDGDYWGQGTQVTVAS”, the “polyreactivity (PSR sort gate)” value is reported as “low polyreactivity”.
